Article PMC9620997 (Gut Microbes, 2022)

Biological target: T1, 6xHis-tagged TssI2 (purified) (Vibrio fluvialis 85003, UniProt A0A1W6EUI3 1-1012)
T1 sequence: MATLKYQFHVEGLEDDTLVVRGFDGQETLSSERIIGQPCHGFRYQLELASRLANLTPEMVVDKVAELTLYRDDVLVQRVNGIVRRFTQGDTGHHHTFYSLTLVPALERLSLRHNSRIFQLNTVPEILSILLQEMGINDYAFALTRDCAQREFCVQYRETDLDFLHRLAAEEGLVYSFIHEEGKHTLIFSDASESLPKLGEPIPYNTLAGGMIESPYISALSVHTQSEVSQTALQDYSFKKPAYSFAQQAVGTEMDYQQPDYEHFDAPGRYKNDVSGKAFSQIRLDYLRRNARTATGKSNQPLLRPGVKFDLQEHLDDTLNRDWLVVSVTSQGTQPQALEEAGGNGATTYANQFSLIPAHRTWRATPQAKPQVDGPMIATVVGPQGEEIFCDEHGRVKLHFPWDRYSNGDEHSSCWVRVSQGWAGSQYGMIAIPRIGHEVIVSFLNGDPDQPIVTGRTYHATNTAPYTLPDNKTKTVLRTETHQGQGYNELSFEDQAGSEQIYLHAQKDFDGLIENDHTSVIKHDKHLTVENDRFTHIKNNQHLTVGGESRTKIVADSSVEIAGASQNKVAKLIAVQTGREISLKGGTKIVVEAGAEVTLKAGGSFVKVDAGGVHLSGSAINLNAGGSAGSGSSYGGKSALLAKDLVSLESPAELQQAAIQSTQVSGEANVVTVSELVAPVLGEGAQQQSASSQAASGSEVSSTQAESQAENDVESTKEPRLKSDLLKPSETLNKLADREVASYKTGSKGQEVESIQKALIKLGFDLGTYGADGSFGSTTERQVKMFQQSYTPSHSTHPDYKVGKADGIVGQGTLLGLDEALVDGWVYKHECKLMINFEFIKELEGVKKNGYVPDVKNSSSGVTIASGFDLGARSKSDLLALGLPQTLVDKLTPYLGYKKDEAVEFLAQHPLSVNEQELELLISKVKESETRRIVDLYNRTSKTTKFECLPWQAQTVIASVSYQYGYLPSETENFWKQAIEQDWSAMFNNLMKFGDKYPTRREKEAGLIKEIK
Experiment: ITC

B1: 6xHis-tagged TsiI2^19-127 (purified) (domain or fragment)
chain: FPTNEVYAYLDITSFNSSLIQKAARGQKHFSDLKIPNPVISKDTILIESEYWKYEMQFVKEDDSGIHVCFVDKAKWGTYDTQTPMIIRKYADEYVAIKMNSDVCEDFAK
Kd: 1.07 nM
